This is an account of results in patent US20240376200A1 (Seagen, published 2024).

B1: Vel-IPV-Ab1 Coil 121 (antibody, part only; not given: Ab1 heavy and light chains, part only)
heavy, part: QGASTSVDELQAEVDQLEDENYAWKTKVAQLRKKVEKLGSIPVSLRSG
light, part: QGASTTVAQLEEKVKTLRAENYEAKSEVQRLEEQVAQLGSIPVSLRSG
B2: Vel-IPV-Ab1 Coil 126 (antibody, part only; not given: Ab1 heavy and light chains, part only)
heavy, part: B1 heavy, part with W24Y
light, part: B1 light, part with A24S
B3: Vel-IPV-Ab1 Coil 110 (antibody, part only; not given: Ab1 heavy and light chains, part only)
heavy, part: B1 heavy, part with W24G
light, part: B1 light, part with A24W
B4: Vel-IPV-Ab1 Coil 106 (antibody, part only; not given: Ab1 heavy and light chains, part only)
heavy, part: B1 heavy, part with W24Y
light, part: B1 light, part with A24F
B5: Vel-IPV-Ab1 Coil 103 (antibody, part only; not given: Ab1 heavy and light chains, part only)
heavy, part: B1 heavy, part with W24G
light, part: B1 light, part with A24Y
B6: Vel-IPV-Ab1 Coil 129 (antibody, part only; not given: Ab1 heavy and light chains, part only)
heavy, part: B1 heavy, part with W24S
light, part: B1 light, part with A24Y
B7: Vel-IPV-Ab1 Coil 117 (antibody, part only; not given: Ab1 heavy and light chains, part only)
heavy, part: B1 heavy, part with W24F
light, part: B1 light, part with A24W
B8: Vel-IPV-Ab1 Coil 124 (antibody, part only; not given: Ab1 heavy and light chains, part only)
heavy, part: B1 heavy, part with W24S
light, part: B1 light, part with A24W
B9: Vel-IPV-Ab1 Coil 107 (antibody, part only; not given: Ab1 heavy and light chains, part only)
heavy, part: B1 heavy, part with W24S
light, part: B1 light, part with A24F
B10: Vel-IPV-Ab1 Coil 111 (antibody, part only; not given: Ab1 heavy and light chains, part only)
heavy, part: B1 heavy, part with W24G
light, part: B1 light, part with A24F
B11: Vel-IPV-Ab1 Coil 122 (antibody, part only; not given: Ab1 heavy and light chains, part only)
heavy, part: B1 heavy, part with W24Y
light, part: B1 light, part
B12: Vel-IPV-Ab1 Coil 115 (antibody, part only; not given: Ab1 heavy and light chains, part only)
heavy, part: B1 heavy, part
light, part: B1 light, part with A24Y
B13: Vel-IPV-Ab1 Coil 114 (antibody, part only; not given: Ab1 heavy and light chains, part only)
heavy, part: B1 heavy, part
light, part: B1 light, part with A24F
B14: Vel-IPV-Ab1 Coil 116 (antibody, part only; not given: Ab1 heavy and light chains, part only)
heavy, part: B1 heavy, part with W24A
light, part: B1 light, part with A24F
B15: Vel-IPV-Ab1 Coil 118 (antibody, part only; not given: Ab1 heavy and light chains, part only)
heavy, part: B1 heavy, part with W24F
light, part: B1 light, part with A24S
B16: Coil 148 heavy chain peptide for CD studies (VelB L24I/V28L) (peptide)
chain: QGASTSVDELQAEVDQLEDENYAIKTKLAQLRKKVEKLGSIPVS
B17: Vel heavy chain peptide for CD studies (VelB) (peptide)
chain: B16 chain with I24L, L28V
B18: Coil 10 heavy chain peptide for CD studies (VelB L24I) (peptide)
chain: B16 chain with L28V
B19: Vel-IPV-Ab1 Coil 134 (antibody, part only; not given: Ab1 heavy and light chains, part only)
heavy, part: B1 heavy, part with W24K
light, part: B1 light, part with A24I
B20: Vel-IPV-Ab1 Coil 149 (antibody, part only; not given: Ab1 heavy and light chains, part only)
heavy, part: B1 heavy, part with W24I, V28I
light, part: B1 light, part
B21: Vel-IPV-Ab1 Coil 145 (antibody, part only; not given: Ab1 heavy and light chains, part only)
heavy, part: B1 heavy, part with W24L, V28I
light, part: B1 light, part
B22: Vel-IPV-Ab1 Coil 137 (antibody, part only; not given: Ab1 heavy and light chains, part only)
heavy, part: B1 heavy, part with W24V
light, part: B1 light, part with A24L
B23: Vel-IPV-Ab1 Coil 138 (antibody, part only; not given: Ab1 heavy and light chains, part only)
heavy, part: B1 heavy, part with W24L, V28L
light, part: B1 light, part with A24L, V28I
B24: Vel-IPV-Ab1 Coil 142 (antibody, part only; not given: Ab1 heavy and light chains, part only)
heavy, part: B1 heavy, part with W24L, V28K
light, part: B1 light, part with A24L, V28I
B25: Vel-IPV-Ab1 Coil 151 (antibody, part only; not given: Ab1 heavy and light chains, part only)
heavy, part: B1 heavy, part with W24L, V28L
light, part: B1 light, part with A24L, V28L
B26: Vel-IPV-hB6H12.3 Coil 152 (antibody, part only; not given: hB6H12.3 heavy and light chains, part only)
heavy, part: B1 heavy, part with W24H
light, part: B1 light, part with A24L, V28A, L31E
B27: Vel-IPV-hB6H12.3 Coil 164 (antibody, part only; not given: hB6H12.3 heavy and light chains, part only)
heavy, part: B1 heavy, part with W24S, L31Q
light, part: B1 light, part with A24R, L31V
B28: Vel-IPV-hB6H12.3 Coil 149 (antibody, part only; not given: hB6H12.3 heavy and light chains, part only)
heavy, part: B1 heavy, part with W24I, V28I
light, part: B1 light, part

Where a chain is given by its changes, count along the chain named. In names and notes the source's numbering stands.

recombinant Antigen 1 (recombinant Ab1 target; recombinant integrin αvβ6 antigen), sequence (P06756 31-992, chain 1 of 2): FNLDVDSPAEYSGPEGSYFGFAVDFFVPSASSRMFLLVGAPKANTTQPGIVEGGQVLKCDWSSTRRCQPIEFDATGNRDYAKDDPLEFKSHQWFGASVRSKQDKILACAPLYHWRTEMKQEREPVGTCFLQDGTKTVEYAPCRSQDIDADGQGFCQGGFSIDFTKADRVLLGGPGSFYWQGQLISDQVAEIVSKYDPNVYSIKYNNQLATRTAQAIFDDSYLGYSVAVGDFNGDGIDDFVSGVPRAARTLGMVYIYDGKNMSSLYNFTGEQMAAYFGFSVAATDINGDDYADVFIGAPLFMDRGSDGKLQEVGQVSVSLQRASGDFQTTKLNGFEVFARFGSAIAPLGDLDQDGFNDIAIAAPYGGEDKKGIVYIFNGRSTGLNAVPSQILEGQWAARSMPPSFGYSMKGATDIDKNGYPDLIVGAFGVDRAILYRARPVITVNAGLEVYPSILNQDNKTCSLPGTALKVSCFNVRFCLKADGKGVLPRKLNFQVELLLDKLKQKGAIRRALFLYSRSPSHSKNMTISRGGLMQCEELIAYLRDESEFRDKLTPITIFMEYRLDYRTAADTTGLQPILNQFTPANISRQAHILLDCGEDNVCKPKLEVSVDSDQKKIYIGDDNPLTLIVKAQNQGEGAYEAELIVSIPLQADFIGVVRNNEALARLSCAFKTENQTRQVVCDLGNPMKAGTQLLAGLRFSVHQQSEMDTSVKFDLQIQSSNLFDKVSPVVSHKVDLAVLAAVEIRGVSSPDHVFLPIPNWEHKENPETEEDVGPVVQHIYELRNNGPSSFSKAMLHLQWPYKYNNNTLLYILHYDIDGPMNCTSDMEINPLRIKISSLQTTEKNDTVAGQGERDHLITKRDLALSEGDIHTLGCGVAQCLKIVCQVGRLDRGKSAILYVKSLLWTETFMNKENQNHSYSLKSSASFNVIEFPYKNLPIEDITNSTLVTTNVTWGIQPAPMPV
recombinant Antigen 1 (recombinant Ab1 target; recombinant integrin αvβ6 antigen), sequence (P18564 22-709, chain 2 of 2, further chain): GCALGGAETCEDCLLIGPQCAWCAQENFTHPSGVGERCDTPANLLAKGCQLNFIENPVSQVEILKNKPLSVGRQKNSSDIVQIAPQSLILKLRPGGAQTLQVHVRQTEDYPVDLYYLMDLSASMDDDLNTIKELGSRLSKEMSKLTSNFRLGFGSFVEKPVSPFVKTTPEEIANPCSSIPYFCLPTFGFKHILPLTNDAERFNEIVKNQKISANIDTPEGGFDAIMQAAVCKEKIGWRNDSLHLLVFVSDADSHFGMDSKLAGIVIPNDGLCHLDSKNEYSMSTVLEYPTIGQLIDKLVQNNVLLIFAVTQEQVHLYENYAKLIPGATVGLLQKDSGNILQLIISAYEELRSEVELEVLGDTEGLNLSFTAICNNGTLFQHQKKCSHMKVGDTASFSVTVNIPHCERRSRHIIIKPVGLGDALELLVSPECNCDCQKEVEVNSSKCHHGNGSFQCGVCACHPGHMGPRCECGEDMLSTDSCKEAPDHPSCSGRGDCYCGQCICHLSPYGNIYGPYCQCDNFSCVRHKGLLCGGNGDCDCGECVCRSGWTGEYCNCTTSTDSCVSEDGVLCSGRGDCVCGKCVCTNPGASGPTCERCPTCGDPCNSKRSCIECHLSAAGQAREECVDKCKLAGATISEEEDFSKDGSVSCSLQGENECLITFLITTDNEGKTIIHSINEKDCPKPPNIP

The target of the first series is Antigen 1 (Ab1 target) expressed on HEK293 / HEK-293F cells. Kind of series: saturation binding FACS, HEK293 cells.
Antigen 1 (Ab1 target) expressed on HEK293 / HEK-293F cells, sequence (P06756 31-1048, chain 1 of 2): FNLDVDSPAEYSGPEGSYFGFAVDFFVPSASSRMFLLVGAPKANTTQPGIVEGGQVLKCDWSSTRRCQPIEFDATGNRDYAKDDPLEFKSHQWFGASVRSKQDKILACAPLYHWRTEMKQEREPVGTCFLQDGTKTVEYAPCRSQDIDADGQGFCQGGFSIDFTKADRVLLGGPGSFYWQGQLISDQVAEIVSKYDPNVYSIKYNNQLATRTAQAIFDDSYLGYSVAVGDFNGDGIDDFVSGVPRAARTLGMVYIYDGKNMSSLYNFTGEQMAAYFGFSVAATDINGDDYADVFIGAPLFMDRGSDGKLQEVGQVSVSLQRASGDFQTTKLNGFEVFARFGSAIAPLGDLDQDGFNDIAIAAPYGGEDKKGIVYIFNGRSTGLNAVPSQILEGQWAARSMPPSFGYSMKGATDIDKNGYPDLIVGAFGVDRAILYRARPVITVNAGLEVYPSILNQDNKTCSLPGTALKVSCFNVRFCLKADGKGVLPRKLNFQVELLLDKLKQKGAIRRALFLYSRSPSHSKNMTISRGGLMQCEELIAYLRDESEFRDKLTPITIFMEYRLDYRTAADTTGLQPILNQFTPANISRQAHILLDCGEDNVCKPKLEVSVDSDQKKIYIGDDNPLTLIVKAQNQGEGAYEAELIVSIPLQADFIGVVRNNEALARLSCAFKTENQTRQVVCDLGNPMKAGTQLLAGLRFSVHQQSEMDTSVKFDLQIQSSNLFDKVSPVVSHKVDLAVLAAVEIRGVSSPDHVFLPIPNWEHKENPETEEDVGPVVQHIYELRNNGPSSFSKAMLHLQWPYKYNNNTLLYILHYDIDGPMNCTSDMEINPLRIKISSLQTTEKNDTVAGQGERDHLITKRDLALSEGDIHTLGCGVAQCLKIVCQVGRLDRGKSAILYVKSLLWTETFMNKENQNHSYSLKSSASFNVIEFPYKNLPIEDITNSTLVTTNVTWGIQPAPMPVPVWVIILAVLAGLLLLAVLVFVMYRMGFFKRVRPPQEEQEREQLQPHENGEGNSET
Antigen 1 (Ab1 target) expressed on HEK293 / HEK-293F cells, sequence (P18564 22-788, chain 2 of 2, further chain): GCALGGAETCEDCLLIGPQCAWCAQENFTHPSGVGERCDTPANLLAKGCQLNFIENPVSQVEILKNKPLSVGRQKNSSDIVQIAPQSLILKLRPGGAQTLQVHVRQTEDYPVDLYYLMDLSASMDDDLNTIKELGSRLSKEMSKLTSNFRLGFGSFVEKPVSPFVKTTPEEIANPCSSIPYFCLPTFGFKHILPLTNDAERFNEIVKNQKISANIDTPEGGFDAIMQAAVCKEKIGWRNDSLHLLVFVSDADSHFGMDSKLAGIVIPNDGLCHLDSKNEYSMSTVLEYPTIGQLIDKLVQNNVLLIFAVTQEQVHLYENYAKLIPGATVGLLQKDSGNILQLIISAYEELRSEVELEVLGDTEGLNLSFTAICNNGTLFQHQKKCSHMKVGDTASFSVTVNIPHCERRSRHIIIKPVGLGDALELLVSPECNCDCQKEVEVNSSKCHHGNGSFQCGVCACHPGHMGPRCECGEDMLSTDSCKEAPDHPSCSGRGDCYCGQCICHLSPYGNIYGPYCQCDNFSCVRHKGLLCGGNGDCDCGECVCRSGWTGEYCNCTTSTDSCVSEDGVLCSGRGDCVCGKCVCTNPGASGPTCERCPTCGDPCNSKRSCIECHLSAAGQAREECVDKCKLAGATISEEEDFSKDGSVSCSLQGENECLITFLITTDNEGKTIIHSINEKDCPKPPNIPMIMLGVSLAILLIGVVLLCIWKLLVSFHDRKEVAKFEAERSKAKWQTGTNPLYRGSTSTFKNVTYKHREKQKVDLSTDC
Usually EC50 stands for the concentration that produces a half-maximal response. Molecule B1 came in with an EC50 of 132 nM and an EC50 fold change from Ab1 of 943 fold.
On the same counts, the results for B2 are 9.5 nM and 68 fold.
In the case of B3, the EC50 worked out at 42.9 nM and the EC50 fold change from Ab1 was found to be 306 fold.
On the same counts, the results for B4 are 38.4 nM and 274 fold.
The matching figures for B5: 2.1 nM and 15 fold.
B6 had a concentration giving a half-maximal response (EC50) of 2.6 nM and an EC50 fold change from Ab1 of 19 fold.
The matching figures for B7: 144 nM and 1030 fold.
On the same counts, the results for B8 are 14.1 nM and 10 fold.
On the same counts, the results for B9 are 2.8 nM and 20 fold.
For the molecule B10, the EC50 came to 9.1 nM and the EC50 fold change from Ab1 came to 65 fold.
The matching figures for B11: 14.5 nM and 104 fold.
The matching figures for B12: 152 nM and 1090 fold.
The matching figures for B13: 59.3 nM and 423 fold.
Molecule B14 yielded an EC50 of 7.5 nM and an EC50 fold change from Ab1 of 54 fold.
With B15, the concentration for a half-maximal effect (EC50) was determined as 16.8 nM and the EC50 fold change from Ab1 amounted to 120 fold.

Target in the next series: not listed separately
Description: circular dichroism thermal denaturation at 222 nm. (Circular dichroism is the unequal absorption of left and right circularly polarised light.)
As for B16, the “Tm (melting temperature of the heavy chain homodimer)” value was “Tm=40.8 °C”.
The same measure, in the same setting: to B17 belongs “Tm=23.3 °C”.
On the same count and under the same terms, as for B18, the entry is “Tm=21.0 °C”.

Another series addresses recombinant Antigen 1 (recombinant Ab1 target; recombinant integrin αvβ6 antigen). Description: saturation binding ELISA.
In the case of B19, the Binding Bmax (OD450) worked out at 0.7 OD450, the concentration giving a half-maximal response (EC50) worked out at 14.7 nM and the EC50 fold change from Ab1 was found to be 67 fold.
On to B1, for which the Binding Bmax (OD450) was found to be 0.9 OD450, the EC50 was found to be 140 nM and the EC50 fold change from Ab1 is 562 fold.
Turning to B2, the Binding Bmax (OD450) was determined as 0.7 OD450, the EC50 is 111 nM and the EC50 fold change from Ab1 was found to be 444 fold.
In the case of B3, the Binding Bmax (OD450) worked out at 1 OD450, the EC50 stood at 548 nM and the EC50 fold change from Ab1 turned out to be 1890 fold.
On to B20, for which the Binding Bmax (OD450) turned out to be 1.1 OD450, the EC50 amounted to 43.6 nM and the EC50 fold change from Ab1 came out at 182 fold.
Turning to B4, the Binding Bmax (OD450) was determined as 0.8 OD450, the EC50 was determined as 190 nM and the EC50 fold change from Ab1 turned out to be 657 fold.
The matching figures for B21: 1.2 OD450, 69.6 nM and 290 fold.
The matching figures for B5: 0.6 OD450, 75.3 nM and 260 fold.
As for B22, the Binding Bmax (OD450) is 1.2 OD450, the EC50 stood at 128 nM and the EC50 fold change from Ab1 was determined as 584 fold.
On the same counts, the results for B6 are 0.6 OD450, 76.6 nM and 306 fold.
The matching figures for B7: 1.1 OD450, 322 nM and 1110 fold.
With B8, the Binding Bmax (OD450) was 0.6 OD450, the EC50 is 129 nM and the EC50 fold change from Ab1 was 517 fold.
On the same counts, the results for B9 are 0.6 OD450, 133 nM and 458 fold.
The matching figures for B23: 1.8 OD450, 117 nM and 532 fold.
On the same counts, the results for B10 are 1.3 OD450, 619 nM and 2140 fold.
On to B11, for which the Binding Bmax (OD450) was 0.6 OD450, the concentration giving a half-maximal response (EC50) worked out at 85.9 nM and the EC50 fold change from Ab1 was 344 fold.
The matching figures for B12: 1 OD450, 184 nM and 633 fold.
Consider B13, for which the Binding Bmax (OD450) was determined as 1.1 OD450, the 50% effective concentration (EC50) worked out at 278 nM and the EC50 fold change from Ab1 is 959 fold.
On the same counts, the results for B14 are 0.7 OD450, 368 nM and 1270 fold.
The matching figures for B24: 1.8 OD450, 101 nM and 461 fold.
The matching figures for B15: 0.8 OD450, 45.2 nM and 181 fold.
Turning to B25, the Binding Bmax (OD450) came to 1.5 OD450, the EC50 came to 198 nM and the EC50 fold change from Ab1 was 827 fold.

For a further series, the target named is T1, recombinant human CD47 (human, UniProt Q08722 19-139, limits assumed).
T1 construct: also called recombinant CD47 antigen
Description: saturation binding ELISA. Background: An ELISA detects its analyte on a solid surface through an enzyme-linked reagent.
Take B26: the Binding Bmax (OD450) is 1.5 OD450, the EC50 was determined as 31.7 nM and the EC50 fold change from hB6H12.3 stood at 12 fold.
For the molecule B27, the Binding Bmax (OD450) is 1.5 OD450, the half-maximal effective concentration (EC50) came to 21.5 nM and the EC50 fold change from hB6H12.3 came out at 8 fold.
Consider B28, for which the Binding Bmax (OD450) was found to be 1.7 OD450, the EC50 is 298 nM and the EC50 fold change from hB6H12.3 was found to be 117 fold.
